Non-standard residues stand in square brackets, D forms with d. No end group written: not given here. *: point of attachment. NMeF = CN[C@@H](Cc1ccccc1)C(=O)O; 125I = [125I]*
Key:
[1] = target: T1, rat neuropeptide FF receptor (NPFF1) (rat, UniProt Q9EP86 1-432); assay: competition with [125I]D-Tyr-NPFF, membranes of COS-7 cells with rat NPFF1
From the text: (§1) Cos-7 cells transiently expressing the gene encoding the novel rat NPFF1 receptor were used for pharmacological evaluation.

[2] = target: rat spinal cord membrane receptor; assay: competition with [125I]D-Tyr-NPFF, rat spinal cord membranes
[3] = target: rat neuropeptide FF receptor (NPFF1) (rat) (UniProt Q9EP86); assay: competition with [125I]D-Tyr-NPFF, membranes of COS-7 cells with rat NPFF1
[4] = target: T1, rat neuropeptide FF receptor (NPFF1); assay: competition with [125I]D-Tyr-NPFF, HEK-293 cells with the cloned receptor
From the text: (§2) Additional pharmacological evaluation was done using 293 human embryonic kidney cells (HEK-293 cells) transiently expressing the genes encoding the human NPFF1, NPFF2, and rat NPFF1 receptors, as well as Cos-7 cells expressing the rat NPFF2 receptors.

[5] = target: T2, human neuropeptide FF receptor (NPFF1) (human, UniProt Q9GZQ6 1-430); assay: as above
T2 construct: also called human NPFF1; hNPFF1
T2 sequence (Q9GZQ6 whole entry): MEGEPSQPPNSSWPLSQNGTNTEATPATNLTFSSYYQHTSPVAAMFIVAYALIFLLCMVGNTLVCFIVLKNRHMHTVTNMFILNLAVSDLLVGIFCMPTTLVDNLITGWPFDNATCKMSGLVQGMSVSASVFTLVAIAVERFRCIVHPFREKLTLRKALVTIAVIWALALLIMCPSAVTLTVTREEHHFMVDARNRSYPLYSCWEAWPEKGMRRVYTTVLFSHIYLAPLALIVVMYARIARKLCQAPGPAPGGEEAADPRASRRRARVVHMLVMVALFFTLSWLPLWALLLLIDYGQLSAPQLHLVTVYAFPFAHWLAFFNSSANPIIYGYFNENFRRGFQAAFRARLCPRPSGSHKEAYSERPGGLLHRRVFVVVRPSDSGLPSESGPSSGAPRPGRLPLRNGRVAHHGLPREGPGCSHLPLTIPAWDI
From the text: as §2

[6] = target: T3, human NPFF2b (hNPFF2) receptor (human, UniProt Q9Y5X5 103-522); assay: as above
T3 construct: also called NPFF-like; hNPFF-like
T3 sequence (Q9Y5X5 103-522): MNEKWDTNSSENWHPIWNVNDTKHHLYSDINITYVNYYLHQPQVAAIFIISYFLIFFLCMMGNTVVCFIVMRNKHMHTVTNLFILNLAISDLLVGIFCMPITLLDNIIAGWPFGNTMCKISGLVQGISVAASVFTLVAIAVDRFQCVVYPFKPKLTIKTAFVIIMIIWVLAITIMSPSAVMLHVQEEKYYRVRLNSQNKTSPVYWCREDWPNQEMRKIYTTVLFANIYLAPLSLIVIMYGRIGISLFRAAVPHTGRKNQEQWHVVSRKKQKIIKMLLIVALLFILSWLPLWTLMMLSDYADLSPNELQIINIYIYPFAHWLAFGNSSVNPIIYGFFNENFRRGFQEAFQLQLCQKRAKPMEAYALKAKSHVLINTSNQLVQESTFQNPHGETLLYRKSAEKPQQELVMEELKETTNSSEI
From the text: as §2

[7] = target: T4, rat neuropeptide FF receptor (NPFF2) (rat, UniProt Q9EQD2 1-417); assay: competition with [125I]D-Tyr-NPFF, cloned receptor (head: HEK-293; text: Cos-7)
T4 construct: Full-length cloned receptor; Also the native receptor in rat brain sections (autoradiography); also called rat NPFF2
T4 sequence (Q9EQD2 whole entry): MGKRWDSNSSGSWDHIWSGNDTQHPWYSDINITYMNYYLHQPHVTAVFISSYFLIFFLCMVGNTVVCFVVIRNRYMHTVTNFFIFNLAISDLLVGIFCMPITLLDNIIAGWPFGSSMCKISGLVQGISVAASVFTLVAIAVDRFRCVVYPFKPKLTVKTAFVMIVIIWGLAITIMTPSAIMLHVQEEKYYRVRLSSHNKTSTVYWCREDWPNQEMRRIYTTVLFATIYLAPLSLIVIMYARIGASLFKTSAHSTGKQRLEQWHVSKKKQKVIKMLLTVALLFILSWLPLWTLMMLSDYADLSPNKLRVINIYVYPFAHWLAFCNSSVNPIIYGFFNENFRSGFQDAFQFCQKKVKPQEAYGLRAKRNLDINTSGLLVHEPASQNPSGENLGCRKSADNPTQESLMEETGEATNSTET
From the text: as §2

[8] = target: T2, human neuropeptide FF receptor (NPFF1); assay: cell-based or functional assay
[9] = target: T3, human NPFF2b (hNPFF2) receptor; assay: cell-based or functional assay
[10] = target: T3, human NPFF2b (hNPFF2) receptor; assay: competition with [125I]D-Tyr-NPFF; human NPFF2 against human NPFF1
From the text: as §2

[11] = target: T4, rat neuropeptide FF receptor (NPFF2); assay: competition with [125I]D-Tyr-NPFF; rat NPFF2 against rat NPFF1
From the text: as §2

[12] = target: T5, rat neuropeptide FF receptor (NPFF1) (rat), Q9EP86; assay: competition with [125I]D-Tyr-NPFF, membranes of COS-7 cells with rat NPFF1
T5 chain: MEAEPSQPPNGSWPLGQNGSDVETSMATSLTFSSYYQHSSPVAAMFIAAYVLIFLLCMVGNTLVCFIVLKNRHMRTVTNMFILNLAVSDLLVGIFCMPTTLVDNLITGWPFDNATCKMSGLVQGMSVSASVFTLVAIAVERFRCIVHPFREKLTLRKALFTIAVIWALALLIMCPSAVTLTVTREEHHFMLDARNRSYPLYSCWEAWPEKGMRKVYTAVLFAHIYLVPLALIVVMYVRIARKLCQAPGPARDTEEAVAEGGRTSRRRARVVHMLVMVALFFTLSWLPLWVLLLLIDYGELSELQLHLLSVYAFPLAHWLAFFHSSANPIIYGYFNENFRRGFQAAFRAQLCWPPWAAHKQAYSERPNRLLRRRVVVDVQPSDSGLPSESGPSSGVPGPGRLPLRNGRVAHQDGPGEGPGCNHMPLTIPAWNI

[13] = target: T4, rat neuropeptide FF receptor (NPFF2); assay: radioligand binding to cloned rat NPFF2, as told in the discussion
[14] = target: T1, rat neuropeptide FF receptor (NPFF1); assay: radioligand saturation binding, membranes of Cos-7 cells transiently expressing rat NPFF1
From the text: as §1

[15] = target: T1, rat neuropeptide FF receptor (NPFF1); assay: radioligand saturation binding, transiently transfected HEK-293 cells
[16] = target: T2, human neuropeptide FF receptor (NPFF1); assay: as above
[17] = target: T3, human NPFF2b (hNPFF2) receptor; assay: as above
[18] = target: T4, rat neuropeptide FF receptor (NPFF2); assay: radioligand saturation binding, Cos-7 cells expressing rat NPFF2
From the text: as §2

[19] = target: T1, rat neuropeptide FF receptor (NPFF1); assay: cell-based or functional assay
[20] = target: T1, rat neuropeptide FF receptor (NPFF1); assay: cell-based or functional assay; remark: listed apart in the source
[21] = target: T4, rat neuropeptide FF receptor (NPFF2); assay: competition binding, HEK-293 cells with the cloned receptor

desamino-nor-Y8Ra (peptide)
pKi [1]: 7.27
pKi [2]: 7.51

Dynorphin A1-13 (from UniProt P01213 207-219) (peptide)
pKi [2]: 5.7

(2D)Y8Fa (peptide)
pKi [2]: 9.21
pKi [3]: 8.33

Neuropeptide FF (NPFF)
pKi [2]: 9.05

Neuropeptide F
pKi [1]: 6.11
pKi [2]: 8.1

(3D)Y8Fa (peptide)
pKi [2]: 9.12
pKi [3]: 8.62

(2DME)Y8Fa (peptide)
pKi [2]: 9.57
pKi [3]: 9.2

CGRP (peptide)
pKi [1]: 5
pKi [2]: 5

B1: D-Met-FMRF amide (peptide)
peptide: FMRF
modifications: D-Met in place of L-Met, C-terminal amide
notes: also called the D-Met analog
pKi [4]: 6.2
pKi [5]: 6.6
pKi [6]: 6.4
pKi [7]: 6.2

B2: galanin (peptide, UniProt P22466 33-62, looked up, species assumed)
Galanin: GWTLNSAGYLLGPHAVGNHRSFSDKNGLTS
modifications: Galanin
pKi [1]: 5
pKi [2]: 5

B3: AF-1 (peptide)
peptide: H-KNQFIRF-NH2
notes: Printed as H2N-Lys-Asn-Gln-Phe-Ile-Arg-Phe-NH2; also called FMRF-like peptide
pKi [1]: 6.63
pKi [2]: 7.56

B4: Y8Fa (peptide)
peptide: YLFQPQRF-NH2
notes: also called Y8Famide; Y-8-F-amide
pKi [1]: 8.38
pKi [2]: 9.19

B5: FMRF amide (peptide)
peptide: FMRF-NH2
pKi [4]: 8.7
pKi [5]: 9.1
pKi [6]: 8.4
pKi [1]: 8.48
pKi [7]: 8
pKi [2]: 8.49

B6: PQRF-amide (peptide)
peptide: PQRF-NH2
notes: C-terminal tetrapeptide of NPFF; also called PGRF-amide [sic]
pKi [4]: 7.6
pKi [5]: 7.4
pKi [6]: 7.6
pKi [1]: 8.18
pKi [7]: 7.6
% of NPPF Response, intracellular calcium mobilization [8]: 93 % of NPPF Response
pEC50, intracellular calcium mobilization [8]: 6.7
% of NPPF Response, intracellular calcium mobilization [9]: 94 % of NPPF Response
pEC50, intracellular calcium mobilization [9]: 7

B7: PMRFa (peptide)
peptide: PMRF-NH2
pKi [1]: 8.55
pKi [2]: 9.37

B8: FFRF (peptide)
peptide: FFRF
modifications: ends and bridges not checked
pKi [1]: 8
pKi [2]: 8.98

B9: FTRF (peptide)
peptide: FTRF
modifications: ends and bridges not checked
pKi [1]: 7.87
pKi [2]: 8.16

B10: Frog pancreatic polypeptide (frog PP) (Rana Temporaria) (peptide)
peptide: APSEPHHPGDQATQDQLAQYYSDLYQYITFVTRPRF
modifications: not fully specified; ends and bridges not checked
notes: also called fPP
pKi [4]: 5.4
pKi [5]: 5.9
pKi [6]: 7.4
fold greater affinity than for the NPFF1 receptor [10]: 77 fold
pKi [1]: 5.5
pKi [7]: 7.3
% of NPPF Response, intracellular calcium mobilization [8]: 0 % of NPPF Response
pEC50, intracellular calcium mobilization [8]: < 5
% of NPPF Response, intracellular calcium mobilization [9]: 78 % of NPPF Response
pEC50, intracellular calcium mobilization [9]: 6.7
fold greater affinity than for the NPFF1 receptor [11]: 31 fold
pKi [2]: 9.12

B11: AF-2 (peptide)
peptide: H-KHQYLRF-NH2
notes: Printed as H-Lys-His-Gln-Tyr-Leu-Arg-Phe-NH2
pKi [1]: 7.02
pKi [2]: 7.96

B12: Tyr-MIF-1 (peptide)
chain: YPLG
modifications: not checked
pKi [12]: 5
pKi [2]: 5

B13: nocistatin (peptide, UniProt Q13519 98-127, looked up, species assumed)
Nocistatin: MPRVRSLFQEQEEPEPGMEEAGEMEQKQLQ
modifications: Nocistatin
pKi [1]: 5
pKi [2]: 5

B14: hPP (peptide, UniProt P01298 30-65, looked up)
peptide: APLEPVYPGDNATPEQMAQYAADLRRYINMLTRPRY
pKi [1]: 5
pKi [2]: 5

B15: Met5-Arg6-Phe7-Enk-NH2 (peptide)
peptide: YGGFMRF-NH2
notes: also called Met-Enk-NH2; Met^5, Arg^6, Phe^7-NH2 enkephalinamide
pKi [1]: 7.35
pKi [2]: 8.4

B16: CCK8 (peptide, UniProt P06307 96-103, looked up, species assumed)
Cholecystokinin-8: DYMGWMDF
modifications: ends and bridges not checked
pKi [1]: 5
pKi [2]: 5

B17: [^125I][D-Tyr^1-(NMe)Phe^3]NPFF (peptide)
peptide: [dY](125I)L[NMeF]QPQRF-NH2
Kd [13]: 0.22 nM
Kd [14]: 0.335 nM
Kd [15]: 0.65 nM
Kd [16]: 0.46 nM
Kd [17]: 0.17 nM
Kd [18]: 0.17 nM

B18: Neuropeptide FF (NPFF) (peptide)
peptide: FLFQPQRF-NH2
notes: bought from Bachem; also called F-8-Fa; F8Famide
EC50, extracellular acidification rate (microphysiometry), CHO cells with NPFF1 alone [19]: 19.3 nM
EC50, extracellular acidification rate (microphysiometry), CHO cells with NPFF1 and the Gz/Gq chimera [19]: 27.7 nM
EC50, total inositol phosphate release, Cos-7 cells with NPFF1 [19]: 23 nM
EC50, functional activity in COS-7 cells [20]: 9.3 nM
pKi [21]: 8.2

B19: rat A-18-F-amide (peptide)
peptide: AGEGLSSPFWSLAAPQRF-NH2
notes: also called NPAF
EC50, extracellular acidification rate (microphysiometry), CHO cells with NPFF1 alone [19]: 150 nM
pKi [4]: 7.5
pKi [5]: 7.2
pKi [6]: 8.9
pKi [1]: 7.5
pKi [7]: 8.2
pKi [2]: 9

B20: [Y^9]A18Fa (peptide)
peptide: AGEGLSSPYWSLAAPQRF-NH2
notes: also called [Y^9]A18Famide; [tyr^9]A-18-F-amide
pKi [1]: 7.56
pKi [2]: 8.5

B21: Met5-Arg6-Phe7-Enk-OH (peptide)
peptide: YGGFMRF-OH
pKi [1]: 5
pKi [2]: 5

B22: (D-Tyr^1-(NMe)Phe^3)NPFF (peptide)
peptide: [dY]L[NMeF]QPQRF-NH2
modifications: N-terminus assumed
SMILES: CC(C)C[C@H](NC(=O)[C@H](N)Cc1ccc(O)cc1)C(=O)N(C)[C@@H](Cc1ccccc1)C(=O)N[C@@H](CCC(N)=O)C(=O)N1CCC[C@H]1C(=O)N[C@@H](CCC(N)=O)C(=O)N[C@@H](CCCNC(=N)N)C(=O)N[C@@H](Cc1ccccc1)C(N)=O
notes: also called D-Tyr-NPFF; (1DMe)Y8Fa
pKi [4]: 8.8
pKi [5]: 8.1
pKi [6]: 8.5
pKi [1]: 8.55
pKi [7]: 8.7
pKi [2]: 9.72

B23: Schisto(FLRFNH2) (peptide)
peptide: PDVDHVFLRF-NH2
notes: also called SchistFLRF
pKi [1]: 5.96
pKi [2]: 6.39

Source: patent US20050089937A1 (H LUNDBECK A S, published 2005)
